Measured values published in publication doi:10.1101/2024.03.29.587195 (bioRxiv, 2024).
Several values for one entry are separate records, joined by “and”; a condition that tells them apart may be missing. Identical values can stand only once.

Target: the molecule itself
Test: cryo-EM structure

B1: CoaXMtb, untagged, recombinant (cryo-EM sample) (natural protein)
chain: MLLAIDVRNTHTVVGLLSGMKEHAKVVQQWRIRTESEVTADELALTIDGLIGEDSERLTGTAALSTVPSVLHEVRIMLDQYWPSVPHVLIEPGVRTGIPLLVDNPKEVGADRIVNCLAAYDRFRKAAIVVDFGSSICVDVVSAKGEFLGGAIAPGVQVSSDAAAARSAALRRVELARPRSVVGKNTVECMQAGAVFGFAGLVDGLVGRIREDVSGFSVDHDVAIVATGHTAPLLLPELHTVDHYDQHLTLQGLRLVFERNLEVQRGRLKTAR
stoichiometry N: 6 and 4
